This note sets out measurements from patent US20220315661A1 (Genmab, published 2022).

Assay [1] addresses T1, kDR5ECDdelHis (human).
T1 construct: DR5ECDdelHis in which the DR5 signal peptide (aa 1-57) is replaced by that of Kappa 2F8; C-terminal His tag; also called soluble recombinant extracellular domain of human DR5; human recombinant DR5
T1 chain: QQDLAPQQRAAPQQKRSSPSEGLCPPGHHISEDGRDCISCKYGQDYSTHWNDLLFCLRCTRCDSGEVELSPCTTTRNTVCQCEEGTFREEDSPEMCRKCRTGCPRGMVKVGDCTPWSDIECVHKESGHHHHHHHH
Description: Bio-Layer Interferometry (Octet HTX), antibody on AHC biosensor, kDR5ECDdelHis in solution, n = 2.

For assay [2], the target named is DR5sh79-115ECDdel-FcRbHisCtag (human, with aa 79-115 replaced by the …). Description: ELISA, DR5 fusion protein captured by penta-his antibody.
Assay [3] addresses T2, Cyno DR5Mfdel-K420N (cynomolgus monkey DR5 with deletion of aa 185-213 and K420N), expressed on CHO-S cells (cynomolgus monkey).
T2 construct: includes the signal peptide; also called CHO-S cells expressing cynomolgus monkey DR5
T2 chain: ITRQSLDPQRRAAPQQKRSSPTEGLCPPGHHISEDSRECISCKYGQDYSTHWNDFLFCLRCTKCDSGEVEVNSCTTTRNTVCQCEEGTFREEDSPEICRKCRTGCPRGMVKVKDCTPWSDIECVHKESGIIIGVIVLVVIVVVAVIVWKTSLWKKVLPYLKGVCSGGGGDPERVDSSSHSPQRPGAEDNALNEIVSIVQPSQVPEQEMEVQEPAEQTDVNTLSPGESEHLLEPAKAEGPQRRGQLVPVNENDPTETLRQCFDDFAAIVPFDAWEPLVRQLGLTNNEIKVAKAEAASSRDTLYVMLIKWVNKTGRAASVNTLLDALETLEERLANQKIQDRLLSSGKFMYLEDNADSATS
Description: flow cytometry on CHO-S cells expressing cynomolgus monkey DR5, average n = 4 (SD).

Assay [4] deals with T1, kDR5ECDdelHis. Description: Bio-Layer Interferometry (Octet HTX), antibody on AHC biosensor, kDR5ECDdelHis in solution, n = 3.
In another assay the target is T3, DR5ECD-FcRbHisCtag (human).
T3 construct: also called fully human DR5 antigen; extracellular domain of human DR5 natural variant P32L
Description: ELISA, DR5 fusion protein captured on a penta-His antibody coat, detection with HRP goat anti-human IgG F(ab')2, OD 405 nm.

In assay [5] the target is T4, DR5sh139-166ECDdel-FcRbHisCtag (human, with aa 139-166 replaced by the …).
T4 chain: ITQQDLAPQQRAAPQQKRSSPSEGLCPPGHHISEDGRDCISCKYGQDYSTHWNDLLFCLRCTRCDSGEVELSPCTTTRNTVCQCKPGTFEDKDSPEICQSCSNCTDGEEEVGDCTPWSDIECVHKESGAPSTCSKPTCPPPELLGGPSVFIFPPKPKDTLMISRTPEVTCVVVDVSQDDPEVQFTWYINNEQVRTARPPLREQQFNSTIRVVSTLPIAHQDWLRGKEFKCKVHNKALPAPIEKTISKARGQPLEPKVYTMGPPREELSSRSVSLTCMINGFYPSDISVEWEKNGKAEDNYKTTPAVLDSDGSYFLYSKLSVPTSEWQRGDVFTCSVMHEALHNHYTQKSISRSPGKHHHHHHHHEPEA
The assay is described as above.

For a further assay, the target named is T5, Murine DR5 (mouse, UniProt Q9QZM4 53-381, limits assumed).
T5 construct: also called mouse DR5; Murine DRS (Uniprot Q9QZM4)
Description: flow cytometry (FIG. 3D).

“And” between values parts separate entries of the source, which are not always exact repeats. Identical values can stand only once.

T5 sequence (Q9QZM4 53-381 limits assumed): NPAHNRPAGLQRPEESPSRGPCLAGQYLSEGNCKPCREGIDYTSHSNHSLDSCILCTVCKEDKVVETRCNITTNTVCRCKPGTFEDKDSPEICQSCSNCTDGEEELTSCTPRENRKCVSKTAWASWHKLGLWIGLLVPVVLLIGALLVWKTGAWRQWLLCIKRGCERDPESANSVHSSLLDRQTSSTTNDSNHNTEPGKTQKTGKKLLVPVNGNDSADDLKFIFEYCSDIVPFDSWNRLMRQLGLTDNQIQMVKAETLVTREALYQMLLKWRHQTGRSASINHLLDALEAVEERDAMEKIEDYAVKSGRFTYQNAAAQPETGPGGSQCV

B1: IgG1-hDR5-05 (antibody)
heavy: not shown
light: DIQLTQSPSSLSASVGDRVTITCSASSSVSYMYWYQQKPGKAPKPWIYRTSNLASGVPSRFSGSGSGTDFTLTISSLQPEDFATYYCQQYHSYPPTFGGGTKVEIKRTVAAPSVFIFPPSDEQLKSGTASVVCLLNNFYPREAKVQWKVDNALQSGNSQESVTEQDSKDSTYSLSSTLTLSKADYEKHKVYACEVTHQGLSSPVTKSFNRGEC
notes: Humanized IgG1,kappa without the E430G mutation; also called WT counterpart of IgG1-hDR5-05-E430G
In turn, B1 displayed a Kd with kDR5ECDdelHis [1] of 28.5 nM.

B2: IgG1-hDR5-05-E430G (antibody)
heavy: not shown
light: B1 light
notes: Humanized IgG1,kappa with E430G (Eu numbering); also called IgG1-DR5-05-E430G; HC hDR5-05-E430G / LC hDR5-05
B2: the binding result in assay [2] is on record as “no binding (tested: range 0.46-1,000 ng/mL)”. Besides, the EC50 in assay [3] was 0.17 µg/mL and 1.16 nM. Further, binding in the assay with kDR5ECDdelHis [4] was characterised by a dissociation constant (Kd) of 27.1 nM. The “EC50 (read off the curve)” value (with DR5ECD-FcRbHisCtag; in assay [5]) was approximately 0.02 µg/mL in each case.

B3: IgG1-hDR5-05-F405L (antibody)
heavy: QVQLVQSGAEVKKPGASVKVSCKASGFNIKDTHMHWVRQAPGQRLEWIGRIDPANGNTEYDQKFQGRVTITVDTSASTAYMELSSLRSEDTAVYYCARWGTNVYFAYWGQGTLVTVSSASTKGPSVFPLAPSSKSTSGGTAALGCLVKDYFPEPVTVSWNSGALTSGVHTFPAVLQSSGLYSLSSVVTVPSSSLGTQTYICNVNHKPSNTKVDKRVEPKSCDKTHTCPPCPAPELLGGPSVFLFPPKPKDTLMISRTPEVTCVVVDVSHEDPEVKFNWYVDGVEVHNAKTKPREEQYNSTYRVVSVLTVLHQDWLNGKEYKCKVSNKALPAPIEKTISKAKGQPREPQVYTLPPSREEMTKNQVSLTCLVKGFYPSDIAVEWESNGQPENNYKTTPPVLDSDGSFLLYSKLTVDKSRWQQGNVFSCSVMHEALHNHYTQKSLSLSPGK
light: B1 light
notes: Humanized IgG1,kappa with F405L; also called HC hDR5-05-F405L / LC hDR5-05
On to B3, for which the binding result with Murine DR5 is listed as “no binding”.
